Laboratory results: US20160194394A1 (GOVERNING COUNCIL OF THE UNIVERSITY OF TORONTO, published 2016)
Positions count from the first letter of the chain named.

B1: B11 (Fab)
light: DIQMTQSPSSLSASVGDRVTITCRASQSVSSAVAWYQQKPGKAPKLLIYSASSLYSGVPSRFSGSRSGTDFTLTISSLQPEDFATYYCQQYFYSSYSPITFGQGTKVEIKRTVAAPSVFIFPPSDSQLKSGTASVVCLLNNFYPREAKVQWKVDNALQSGNSQESVTEQDSKDSTYSLSSTLTLSKADYEKHKVYACEVTHQGLSSPVTKSFNRGECGGS
heavy: EVQLVESGGGLVQPGGSLRLSCAASGFNISYSYMHWVRQAPGKGLEWVAYIYPSYSSTSYADSVKGRFTISADTSKNTAYLQMNSLRAEDTAVYYCARASYWALDYWGQGTLVTVSSASTKGPSVFPLAPSSKSTSGGTAALGCLVKDYFPEPVTVSWNSGALTSGVHTFPAVLQSSGLYSLSSVVTVPSSSLGTQTYICNVNHKPSNTKVDKKVEPKSC
notes: selection round 2; also called Fzd7-R2-B11
B2: H8 (Fab)
light: B1 light with Y91S, S94W, S95G, S97P, I99F
heavy: EVQLVESGGGLVQPGGSLRLSCAASGFNIYSSSIHWVRQAPGKGLEWVASIYSYYGYTYYADSVKGRFTISADTSKNTAYLQMNSLRAEDTAVYYCARWYAFDYWGQGTLVTVSSASTKGPSVFPLAPSSKSTSGGTAALGCLVKDYFPEPVTVSWNSGALTSGVHTFPAVLQSSGLYSLSSVVTVPSSSLGTQTYICNVNHKPSNTKVDKKVEPKSC
notes: selection round 2; also called Fzd7-R2-H8
B3: A7 (Fab)
light: DIQMTQSPSSLSASVGDRVTITCRASQSVSSAVAWYQQKPGKAPKLLIYSASSLYSGVPSRFSGSRSGTDFTLTISSLQPEDFATYYCQQYHYGYYPFTFGQGTKVEIKRTVAAPSVFIFPPSDSQLKSGTASVVCLLNNFYPREAKVQWKVDNALQSGNSQESVTEQDSKDSTYSLSSTLTLSKADYEKHKVYACEVTHQGLSSPVTKSFNRGECGGS
heavy: B1 heavy with I29L, Y31S, M34I, P53S, S56G, S59Y, Y101W, L104I
notes: selection round 2; also called Fzd7-R2-A7
B4: G12 (Fab)
light: DIQMTQSPSSLSASVGDRVTITCRASQSVSSAVAWYQQKPGKAPKLLIYSASSLYSGVPSRFSGSRSGTDFTLTISSLQPEDFATYYCQQWGYGALITFGQGTKVEIKRTVAAPSVFIFPPSDSQLKSGTASVVCLLNNFYPREAKVQWKVDNALQSGNSQESVTEQDSKDSTYSLSSTLTLSKADYEKHKVYACEVTHQGLSSPVTKSFNRGECGGS
heavy: EVQLVESGGGLVQPGGSLRLSCAASGFNISYSSIHWVRQAPGKGLEWVASIYPSPGYTSYADSVKGRFTISADTSKNTAYLQMNSLRAEDTAVYYCARHGWYGLDYWGQGTLVTVSSASTKGPSVFPLAPSSKSTSGGTAALGCLVKDYFPEPVTVSWNSGALTSGVHTFPAVLQSSGLYSLSSVVTVPSSSLGTQTYICNVNHKPSNTKVDKKVEPKSC
notes: selection round 2; also called Fzd7-R2-G12

Key:
[1] = target: T1, recombinant Frizzled receptor 7 (FZD7) cysteine-rich domain (CRD) fused to the Fc region of human IgG (human, UniProt O75084 33-185); assay: ELISA, 1ug/ml (20nM) Fab [cont'd]
Protocol: (§1) FIG. 2B is a table depicting the binding of purified Fabs to purified FZD7-Fc measured by ELISA. Fabs purified from 25 ml bacterial cultures were assayed for binding to FZD7-Fc fusion protein (R&D systems) and Fc protein. ELISA plates (384 well) were coated with 2 ug/ml of protein in PBS overnight at four degrees. Wells were blocked with 0.5% BSA/PBS for 1 hour at room temperature, washed three times with 0.05% Tween20/PBS (wash buffer), and then primary dilutions of Fabs in 0.5% BSA/0.05% Tween20/PBS (dilution buffer) were added at indicated concentrations. Fabs were incubated for 1 hour at room temperature, wells were washed six times, and anti-FLAG-HRP (Sigma) was added at 1:5000 in dilution buffer. Secondary antibody was incubated for 45 minutes at room temperature, and wells were washed six times and developed with TMB substrate with an acid stop. The absorbance at 450 nm was read. n.t.=not tested.

[2] = target: T2, Fc control protein; assay: ELISA, 1ug/ml (20nM) Fab [cont'd]
T2 construct: also called Fc protein; control Fc protein
Protocol: as §1

[3] = target: T1, recombinant Frizzled receptor 7 (FZD7) …; assay: ELISA, 10ug/ml (200nM) Fab [cont'd]
Protocol: as §1

[4] = target: T2, Fc control protein; assay: ELISA, 10ug/ml (200nM) Fab [cont'd]
Protocol: as §1

[5] = target: T3, FZD7 receptor expressed on cells (full-length) (UniProt O75084 33-574, limits assumed); assay: flow cytometry, 200 nM Fab, MDA MB 231 [cont'd]
T3 construct: whole, on cells; MDA MB 231 cells may carry other Frizzled receptors too; also called full-length FZD7 receptor; endogenous receptor on MDA MB 231 cells
Protocol: (§2) FIG. 3 is a table depicting the binding of the purified Fabs to cells expressing FZD7 (flow cytometry). Small scale Fabs were assayed for binding to full-length FZD7 receptor to an over-expression line in MDA MB 231 cells. In parallel, Fabs were assayed for binding to endogenous receptor expressed on the MDA MB 231 cells. Cells were harvested using an EDTA solution, blocked in 2% FBS/PBS (stain buffer), and stained with 200 nM Fab for 30 min on ice. Cells were washed two times with stain buffer and incubated with anti-F(ab′)₂-APC secondary antibody (Jackson Immuno) at 1:1000 for 15 minutes on ice. All antibodies were diluted in stain buffer. Cells were washed three times with stain buffer and then fixed with 1% paraformaldehye for analysis by flow cytometry. […] The percent of the cell population within the positive gates is indicated.

[6] = target: T3, FZD7 receptor expressed on cells …; assay: flow cytometry, 200 nM Fab, FZD7 over-expression line (MDA MB 231) [cont'd]
Protocol: as §2

[7] = target: T1, recombinant Frizzled receptor 7 (FZD7) …; assay: ELISA, 1ug/ml (20nM) Fab
Protocol: as §1

[8] = target: T2, Fc control protein; assay: ELISA, 1ug/ml (20nM) Fab
Protocol: as §1

[9] = target: T1, recombinant Frizzled receptor 7 (FZD7) …; assay: ELISA, 10ug/ml (200nM) Fab
Protocol: as §1

[10] = target: T2, Fc control protein; assay: ELISA, 10ug/ml (200nM) Fab
Protocol: as §1

[11] = target: T3, FZD7 receptor expressed on cells …; assay: flow cytometry, 200 nM Fab, MDA MB 231
Protocol: as §2

[12] = target: T3, FZD7 receptor expressed on cells …; assay: flow cytometry, 200 nM Fab, FZD7 over-expression line (MDA MB 231)
Protocol: as §2

OD 450 [1] | OD 450 [2] | OD 450 [3] | OD 450 [4] | % population within the positive gate [5] | % population within the positive gate [6] | OD 450 [7] | OD 450 [8] | OD 450 [9] | OD 450 [10] | % population within the positive gate [11] | % population within the positive gate [12] | Binder
3.15 | 0.05 | 3.2 | 0.08 | 97.2% | 91.2% | – | – | – | – | – | – | B1
0.78 | 0.06 | 2.7 | 0.08 | 1.1% | 79.6% | – | – | – | – | – | – | B2
3.19 | 0.07 | 3.22 | 0.07 | 96.3% | 92.7% | – | – | – | – | – | – | B3
– | – | – | – | – | – | 3.13 | 0.06 | 3.19 | 0.14 | 33.3% | 83.8% | B4
